{"source": "patent US20240109955A1", "experiment_in_all_cases": "cell-based or functional assay", "key": {"[1]": {"target": "SARS-CoV-2 spike (S) protein, Omicron sublineage BQ.1.1 (SARS-CoV-2)"}, "[2]": {"target": "SARS-CoV-2 spike (S) protein, Omicron sublineage BQ.1 (SARS-CoV-2)"}, "[3]": {"target": "SARS-CoV-2 spike (S) protein, Omicron sublineage XBB (SARS-CoV-2)"}, "[4]": {"target": "SARS-CoV-2 spike (S) protein, Omicron sublineage BA.4/5 (SARS-CoV-2)"}, "[5]": {"target": "SARS-CoV-2 spike (S) protein, Omicron sublineage BA.2.75.2 (SARS-CoV-2)"}}, "data": [{"binder": "MX1065 (trispecific antibody) chain 1: QTVVTQEPSFSVSPGGTVTLTCGLSSGSVSTAYFPSWYQQTPGQAPRTLIYGTNTRSSGVPDRFSGSILGNKAALTITGAQADDESDYYCVLYMGRGIVVFGGGTKLTVLGGSSGEIVMTQSPAILSVSPGERATLSCRASQSVAINLAWYQQKPGQAPRLLIYAASSRATGIPGRFSGSGSETNFTLTISSLQSGDFAVYYCQQYITWPPSYTFGQGTKLEIKGGGGSGGSGSGGGGSASGSGEVQLVESGGALIQPGGSLRLSCAASGIIVSANYMSWVRQAPGKGLEWVSVIYSGGSTFYADSVKGRFTISRDNSKNTLYLEMNSLRAEDTAVYYCARDAPILGVSDWGQGTLVTVSSGGSSGQVQLVESGGGVVQPGRSLRLSCAASGFTLSSYGMHWVRQAPGKGLEWVAVISYDGSNKYYVDSVKGRFTISRDNSKNTLYLQMNSLRAEDTAVYYCRWAYWELLPDYYYGMDVWGQGTTVTVSSASGGSGDKTHTCPPCPAPELLGGPSVFLFPPKPKDTLMISRTPEVTCVVVDVSHEDPEVKFNWYVDGVEVHNAKTKPREEQYNSYVVSVLTVLHQDWLNGKEYKCKVSNKALPAPIEKTISKAKGQPREPQVYTLPPCRDELTKNQVSLWCLVKGFYPSDIAVEWESNGQPENNYKTTPPVLDSDGSFFKKLTVDKSRWQQGNVFSCSVLHEALHSHYTQKSLSLSPG chain 2: QTVVTQEPSFSVSPGGTVTLTCGLSSGSVSTAYFPSWYQQTPGQAPRTLIYGTNTRSSGVPDRFSGSILGNKAALTITGAQADDESDYYCVLYMGRGIVVFGGGTKLTVLGGSSGDTVMTQSPLSLPVTPGEPASISCRSSQSLLNSNGYNYLDWYVQKPGQSPQLLIYLGSNRASGVPDRFSGSGSGTDFTLKISRVEAEDVGVYYCMQPLQTPLFTFGPGTKVEIKGGGGSGGSGSGGGGSASGSGQVTLRESGPALVKPTQTLTLTCTFSGFSLSTRGVCVSWIRQPPGKALEWLAFIDWDDDKYYNTSLKTRLTISKDTSKNQVVLTMTNVHPVDTATYYCARISSHHGSSWCTTFDYWGQGALVTVSAGGSSGQVQLVESGGGVVQPGRSLRLSCAASGFTLSSYGMHWVRQAPGKGLEWVAVISYDGSNKYYVDSVKGRFTISRDNSKNTLYLQMNSLRAEDTAVYYCRWAYWELLPDYYYGMDVWGQGTTVTVSSASGGSGDKTHTCPPCPAPELLGGPSVFLFPPKPKDTLMISRTPEVTCVVVDVSHEDPEVKFNWYVDGVEVHNAKTKPREEQYNSYVVSVLTVLHQDWLNGKEYKCKVSNKALPAPIEKTISKAKGQPREPQVCTLPPSRDELTKNQVSLSCAVKGFYPSDIAVEWESNGQPENNYKTTPPVLDSDGSFFLVSKLTVDKSRWQQGNVFSCSVLHEALHSHYTQKSLSLSPG", "values": [{"measurement": "IC50, pseudovirus neutralization", "setting": "[1]", "result": 0.014, "unit": "µg/mL"}, {"measurement": "IC80, pseudovirus neutralization", "setting": "[1]", "result": 0.0206, "unit": "µg/mL"}, {"measurement": "IC50, pseudovirus neutralization", "setting": "[2]", "result": 0.0335, "unit": "µg/mL"}, {"measurement": "IC80, pseudovirus neutralization", "setting": "[2]", "result": 0.086, "unit": "µg/mL"}, {"measurement": "IC50, pseudovirus neutralization", "setting": "[3]", "result": 0.0125, "unit": "µg/mL"}, {"measurement": "IC80, pseudovirus neutralization", "setting": "[3]", "result": 0.0167, "unit": "µg/mL"}]}, {"binder": "MX1066 (trispecific antibody) chain 1: QTVVTQEPSFSVSPGGTVTLTCGLSSGSVSTAYFPSWYQQTPGQAPRTLIYGTNTRSSGVPDRFSGSILGNKAALTITGAQADDESDYYCVLYMGRGIVVFGGGTKLTVLGGSSGEIVMTQSPAILSVSPGERATLSCRASQSVAINLAWYQQKPGQAPRLLIYAASSRATGIPGRFSGSGSETNFTLTISSLQSGDFAVYYCQQYITWPPSYTFGQGTKLEIKGGGGSGGSGSGGGGSASGSGEVQLVESGGALIQPGGSLRLSCAASGIIVSANYMSWVRQAPGKGLEWVSVIYSGGSTFYADSVKGRFTISRDNSKNTLYLEMNSLRAEDTAVYYCARDAPILGVSDWGQGTLVTVSSGGSSGQVQLVESGGGVVQPGRSLRLSCAASGFTLSSYGMHWVRQAPGKGLEWVAVISYDGSNKYYVDSVKGRFTISRDNSKNTLYLQMNSLRAEDTAVYYCRWAYWELLPDYYYGMDVWGQGTTVTVSSASGGSGDKTHTCPPCPAPELLGGPSVFLFPPKPKDTLMISRTPEVTCVVVDVSHEDPEVKFNWYVDGVEVHNAKTKPREEQYNSYVVSVLTVLHQDWLNGKEYKCKVSNKALPAPIEKTISKAKGQPREPQVYTLPPCRDELTKNQVSLWCLVKGFYPSDIAVEWESNGQPENNYKTTPPVLDSDGSFFKKLTVDKSRWQQGNVFSCSVLHEALHSHYTQKSLSLSPG chain 2: DTVMTQSPLSLPVTPGEPASISCRSSQSLLNSNGYNYLDWYVQKPGQSPQLLIYLGSNRASGVPDRFSGSGSGTDFTLKISRVEAEDVGVYYCMQPLQTPLFTFGPGTKVEIKGGSSGQTVVTQEPSFSVSPGGTVTLTCGLSSGSVSTAYFPSWYQQTPGQAPRTLIYGTNTRSSGVPDRFSGSILGNKAALTITGAQADDESDYYCVLYMGRGIVVFGGGTKLTVLGGGGSGGSGSGGGGSASGSGQVQLVESGGGVVQPGRSLRLSCAASGFTLSSYGMHWVRQAPGKGLEWVAVISYDGSNKYYVDSVKGRFTISRDNSKNTLYLQMNSLRAEDTAVYYCRWAYWELLPDYYYGMDVWGQGTTVTVSSGGSSGQVTLRESGPALVKPTQTLTLTCTFSGFSLSTRGVCVSWIRQPPGKALEWLAFIDWDDDKYYNTSLKTRLTISKDTSKNQVVLTMTNVHPVDTATYYCARISSHHGSSWCTTFDYWGQGALVTVSAASGGSGDKTHTCPPCPAPELLGGPSVFLFPPKPKDTLMISRTPEVTCVVVDVSHEDPEVKFNWYVDGVEVHNAKTKPREEQYNSYVVSVLTVLHQDWLNGKEYKCKVSNKALPAPIEKTISKAKGQPREPQVCTLPPSRDELTKNQVSLSCAVKGFYPSDIAVEWESNGQPENNYKTTPPVLDSDGSFFLVSKLTVDKSRWQQGNVFSCSVLHEALHSHYTQKSLSLSPG", "values": [{"measurement": "IC50, pseudovirus neutralization", "setting": "[1]", "result": 0.0284, "unit": "µg/mL"}, {"measurement": "IC80, pseudovirus neutralization", "setting": "[1]", "result": 0.0307, "unit": "µg/mL"}, {"measurement": "IC50, pseudovirus neutralization", "setting": "[2]", "result": 0.0359, "unit": "µg/mL"}, {"measurement": "IC80, pseudovirus neutralization", "setting": "[2]", "result": 0.0413, "unit": "µg/mL"}, {"measurement": "IC50, pseudovirus neutralization", "setting": "[3]", "result": 0.0287, "unit": "µg/mL"}, {"measurement": "IC80, pseudovirus neutralization", "setting": "[3]", "result": 0.0298, "unit": "µg/mL"}]}, {"binder": "MX1056 (trispecific antibody) chain 1: DTVMTQSPLSLPVTPGEPASISCRSSQSLLNSNGYNYLDWYVQKPGQSPQLLIYLGSNRASGVPDRFSGSGSGTDFTLKISRVEAEDVGVYYCMQPLQTPLFTFGPGTKVEIKGGSSGEIVMTQSPAILSVSPGERATLSCRASQSVAINLAWYQQKPGQAPRLLIYAASSRATGIPGRFSGSGSETNFTLTISSLQSGDFAVYYCQQYITWPPSYTFGQGTKLEIKGGGGSGGSGSGGGGSASGSGEVQLVESGGALIQPGGSLRLSCAASGIIVSANYMSWVRQAPGKGLEWVSVIYSGGSTFYADSVKGRFTISRDNSKNTLYLEMNSLRAEDTAVYYCARDAPILGVSDWGQGTLVTVSSGGSSGQVTLRESGPALVKPTQTLTLTCTFSGFSLSTRGVCVSWIRQPPGKALEWLAFIDWDDDKYYNTSLKTRLTISKDTSKNQVVLTMTNVHPVDTATYYCARISSHHGSSWCTTFDYWGQGALVTVSAASGGSGDKTHTCPPCPAPELLGGPSVFLFPPKPKDTLMISRTPEVTCVVVDVSHEDPEVKFNWYVDGVEVHNAKTKPREEQYNSYVVSVLTVLHQDWLNGKEYKCKVSNKALPAPIEKTISKAKGQPREPQVYTLPPCRDELTKNQVSLWCLVKGFYPSDIAVEWESNGQPENNYKTTPPVLDSDGSFFKKLTVDKSRWQQGNVFSCSVLHEALHSHYTQKSLSLSPG chain 2: DTVMTQSPLSLPVTPGEPASISCRSSQSLLNSNGYNYLDWYVQKPGQSPQLLIYLGSNRASGVPDRFSGSGSGTDFTLKISRVEAEDVGVYYCMQPLQTPLFTFGPGTKVEIKGGSSGQTVVTQEPSFSVSPGGTVTLTCGLSSGSVSTAYFPSWYQQTPGQAPRTLIYGTNTRSSGVPDRFSGSILGNKAALTITGAQADDESDYYCVLYMGRGIVVFGGGTKLTVLGGGGSGGSGSGGGGSASGSGQVQLVESGGGVVQPGRSLRLSCAASGFTLSSYGMHWVRQAPGKGLEWVAVISYDGSNKYYVDSVKGRFTISRDNSKNTLYLQMNSLRAEDTAVYYCRWAYWELLPDYYYGMDVWGQGTTVTVSSGGSSGQVTLRESGPALVKPTQTLTLTCTFSGFSLSTRGVCVSWIRQPPGKALEWLAFIDWDDDKYYNTSLKTRLTISKDTSKNQVVLTMTNVHPVDTATYYCARISSHHGSSWCTTFDYWGQGALVTVSAASGGSGDKTHTCPPCPAPELLGGPSVFLFPPKPKDTLMISRTPEVTCVVVDVSHEDPEVKFNWYVDGVEVHNAKTKPREEQYNSYVVSVLTVLHQDWLNGKEYKCKVSNKALPAPIEKTISKAKGQPREPQVCTLPPSRDELTKNQVSLSCAVKGFYPSDIAVEWESNGQPENNYKTTPPVLDSDGSFFLVSKLTVDKSRWQQGNVFSCSVLHEALHSHYTQKSLSLSPG", "values": [{"measurement": "IC50, pseudovirus neutralization", "setting": "[4]", "result": 0.00412, "unit": "µg/mL"}, {"measurement": "IC80, pseudovirus neutralization", "setting": "[4]", "result": 0.00589, "unit": "µg/mL"}, {"measurement": "IC50, pseudovirus neutralization", "setting": "[1]", "result": 0.00584, "unit": "µg/mL"}, {"measurement": "IC80, pseudovirus neutralization", "setting": "[1]", "result": 0.0419, "unit": "µg/mL"}, {"measurement": "IC50, pseudovirus neutralization", "setting": "[5]", "result": 0.00253, "unit": "µg/mL"}, {"measurement": "IC80, pseudovirus neutralization", "setting": "[5]", "result": 0.00992, "unit": "µg/mL"}, {"measurement": "IC50, pseudovirus neutralization", "setting": "[2]", "result": 0.013, "unit": "µg/mL"}, {"measurement": "IC80, pseudovirus neutralization", "setting": "[2]", "result": 0.0368, "unit": "µg/mL"}, {"measurement": "IC50, pseudovirus neutralization", "setting": "[3]", "result": 0.00713, "unit": "µg/mL"}, {"measurement": "IC80, pseudovirus neutralization", "setting": "[3]", "result": 0.0236, "unit": "µg/mL"}]}]}
